Measurements reported in paper PMC2756588.

T1: Abp1, P15891
T1 sequence (P15891 535-592, looked up): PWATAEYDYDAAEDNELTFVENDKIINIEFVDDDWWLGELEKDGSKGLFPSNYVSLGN

T2: Bbc1, P47068
T2 sequence (P47068 1-78, looked up): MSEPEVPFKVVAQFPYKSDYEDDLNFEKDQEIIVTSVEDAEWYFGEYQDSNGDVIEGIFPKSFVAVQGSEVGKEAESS

T3: Hof1, Q05080
T3 sequence (Q05080 590-669, looked up): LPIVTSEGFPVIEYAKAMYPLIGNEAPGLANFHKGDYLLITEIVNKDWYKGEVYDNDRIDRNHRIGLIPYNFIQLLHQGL

T4: Lsb1, P53281
T4 sequence (P53281 45-122, looked up): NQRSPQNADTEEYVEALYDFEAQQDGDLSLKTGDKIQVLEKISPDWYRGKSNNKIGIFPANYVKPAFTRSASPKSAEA

T5: Fus1, P11710
T5 sequence (P11710 432-512, looked up): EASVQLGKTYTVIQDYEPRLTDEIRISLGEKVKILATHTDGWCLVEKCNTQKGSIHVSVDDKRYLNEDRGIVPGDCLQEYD

T6: Pin3, Q06449
T6 sequence (Q06449 53-122, looked up): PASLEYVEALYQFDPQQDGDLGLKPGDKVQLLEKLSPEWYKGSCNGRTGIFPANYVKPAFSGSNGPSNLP

T7: Pex13, P80667
T7 sequence (P80667 295-386, looked up): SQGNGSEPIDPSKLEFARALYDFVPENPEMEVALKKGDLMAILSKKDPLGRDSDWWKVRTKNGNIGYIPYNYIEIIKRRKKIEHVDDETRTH

T8: Bzz1-2, P38822
T8 sequence (P38822 568-633, looked up): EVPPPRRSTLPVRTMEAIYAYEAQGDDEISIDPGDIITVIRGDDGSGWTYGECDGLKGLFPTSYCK

T9: Lsb4, P32793
T9 sequence (P32793 402-468, looked up): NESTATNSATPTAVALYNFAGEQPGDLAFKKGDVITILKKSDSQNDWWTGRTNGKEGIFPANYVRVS

T10: Cyk3, Q07533
T10 sequence (Q07533 1-83, looked up): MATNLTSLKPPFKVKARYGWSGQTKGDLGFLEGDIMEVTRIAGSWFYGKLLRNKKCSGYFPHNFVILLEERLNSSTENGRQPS

T11: Bud14, P27637
T11 sequence (P27637 247-328, looked up): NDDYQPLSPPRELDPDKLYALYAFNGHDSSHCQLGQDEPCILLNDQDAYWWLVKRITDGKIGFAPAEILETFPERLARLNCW

T12: Myo5, Q04439
T12 sequence (Q04439 1072-1160, looked up): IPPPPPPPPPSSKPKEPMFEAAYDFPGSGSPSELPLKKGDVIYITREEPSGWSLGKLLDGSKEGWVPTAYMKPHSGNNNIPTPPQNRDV

T13: Nbp2, Q12163
T13 sequence (Q12163 103-180, looked up): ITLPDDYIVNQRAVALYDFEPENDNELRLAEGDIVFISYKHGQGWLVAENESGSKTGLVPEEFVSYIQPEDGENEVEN

T14: Sla1-3, P32790
T14 sequence (P32790 344-424, looked up): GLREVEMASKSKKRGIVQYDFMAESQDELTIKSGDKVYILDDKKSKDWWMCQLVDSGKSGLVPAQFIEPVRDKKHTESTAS

T15: Boi2, P39969
T15 sequence (P39969 32-116, looked up): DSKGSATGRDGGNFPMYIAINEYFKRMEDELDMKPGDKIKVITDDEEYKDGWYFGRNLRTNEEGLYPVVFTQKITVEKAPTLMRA

T16: Cdc25, P04821
T16 sequence (P04821 50-136, looked up): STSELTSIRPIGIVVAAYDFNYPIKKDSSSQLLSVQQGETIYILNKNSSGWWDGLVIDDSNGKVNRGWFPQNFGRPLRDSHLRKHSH

T17: Bzz1-1, P38822
T17 sequence (P38822 478-572, looked up): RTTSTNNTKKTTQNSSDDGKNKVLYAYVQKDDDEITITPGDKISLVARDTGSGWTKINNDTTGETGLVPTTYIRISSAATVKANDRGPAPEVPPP

T18: Hse1, P38753
T18 sequence (P38753 208-285, looked up): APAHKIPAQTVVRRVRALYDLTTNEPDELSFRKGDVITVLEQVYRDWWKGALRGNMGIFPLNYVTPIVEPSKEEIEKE

T19: Boi1, P38041
T19 sequence (P38041 1-86, looked up): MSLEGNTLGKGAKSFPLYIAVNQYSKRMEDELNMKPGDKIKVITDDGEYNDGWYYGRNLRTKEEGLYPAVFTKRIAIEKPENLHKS

T20: Lsb3, P43603
T20 sequence (P43603 385-451, looked up): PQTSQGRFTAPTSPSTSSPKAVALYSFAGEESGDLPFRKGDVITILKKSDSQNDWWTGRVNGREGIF

T21: Sla1-2, P32790
T21 sequence (P32790 60-140, looked up): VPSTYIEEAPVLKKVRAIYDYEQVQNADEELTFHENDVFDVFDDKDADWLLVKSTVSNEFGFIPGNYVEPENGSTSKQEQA


target: T1, Abp1, P15891; test: SPOT array; conditions: median of control spots 935

Row | Binder | SPOT intensity
1 | ALFRLSFFFPLDPAY | 142
2 | QFDLKMPSKPIHNLK | 41
3 | FLIKFTPKFPQSIDH | 417

target: T2, Bbc1, P47068; test: SPOT array; conditions: median of control spots 796

Row | Binder | SPOT intensity
4 | ALFRLSFFFPLDPAY | 218
5 | QFDLKMPSKPIHNLK | 0
6 | FLIKFTPKFPQSIDH | 44

target: T3, Hof1, Q05080; test: SPOT array; conditions: median of control spots 4086

Row | Binder | SPOT intensity
7 | ALFRLSFFFPLDPAY | 33
8 | QFDLKMPSKPIHNLK | 0
9 | FLIKFTPKFPQSIDH | 24

target: Bem1-2, P29366; test: SPOT array; conditions: median of control spots 4347
Sequence (P29366 139-227): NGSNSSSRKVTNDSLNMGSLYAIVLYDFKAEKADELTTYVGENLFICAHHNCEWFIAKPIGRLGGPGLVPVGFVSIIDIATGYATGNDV

Row | Binder | SPOT intensity
10 | ALFRLSFFFPLDPAY | 27
11 | QFDLKMPSKPIHNLK | 0
12 | FLIKFTPKFPQSIDH | 0

target: T4, Lsb1, P53281; test: SPOT array; conditions: median of control spots 388

Row | Binder | SPOT intensity
13 | ALFRLSFFFPLDPAY | 49
14 | QFDLKMPSKPIHNLK | 1
15 | FLIKFTPKFPQSIDH | 46

target: T5, Fus1, P11710; test: SPOT array; conditions: median of control spots 1200

Row | Binder | SPOT intensity
16 | ALFRLSFFFPLDPAY | 628
17 | QFDLKMPSKPIHNLK | 0
18 | FLIKFTPKFPQSIDH | 100

target: T6, Pin3, Q06449; test: SPOT array; conditions: median of control spots 2171

Row | Binder | SPOT intensity
19 | ALFRLSFFFPLDPAY | 39
20 | QFDLKMPSKPIHNLK | 68
21 | FLIKFTPKFPQSIDH | 41

target: T7, Pex13, P80667; test: SPOT array; conditions: median of control spots 1341

Row | Binder | SPOT intensity
22 | ALFRLSFFFPLDPAY | 93
23 | QFDLKMPSKPIHNLK | 95
24 | FLIKFTPKFPQSIDH | 73

target: T8, Bzz1-2, P38822; test: SPOT array; conditions: median of control spots 4538

Row | Binder | SPOT intensity
25 | ALFRLSFFFPLDPAY | 31
26 | QFDLKMPSKPIHNLK | 0
27 | FLIKFTPKFPQSIDH | 9

target: Sho1, P40073; test: SPOT array; conditions: median of control spots 1148
Sequence (P40073 287-367): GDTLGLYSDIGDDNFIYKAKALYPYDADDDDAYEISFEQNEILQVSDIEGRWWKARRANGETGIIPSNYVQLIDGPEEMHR

Row | Binder | SPOT intensity
28 | ALFRLSFFFPLDPAY | 168
29 | QFDLKMPSKPIHNLK | 7
30 | FLIKFTPKFPQSIDH | 304

target: T9, Lsb4, P32793; test: SPOT array; conditions: median of control spots 397

Row | Binder | SPOT intensity
31 | ALFRLSFFFPLDPAY | 21
32 | QFDLKMPSKPIHNLK | 27
33 | FLIKFTPKFPQSIDH | 63

target: T10, Cyk3, Q07533; test: SPOT array; conditions: median of control spots 1451

Row | Binder | SPOT intensity
34 | ALFRLSFFFPLDPAY | 13
35 | QFDLKMPSKPIHNLK | 0
36 | FLIKFTPKFPQSIDH | 0

target: T11, Bud14, P27637; test: SPOT array; conditions: median of control spots 956

Row | Binder | SPOT intensity
37 | ALFRLSFFFPLDPAY | 12
38 | QFDLKMPSKPIHNLK | 0
39 | FLIKFTPKFPQSIDH | 5

target: Rvs167, P39743; test: SPOT array; conditions: median of control spots 2707
Sequence (P39743 419-482): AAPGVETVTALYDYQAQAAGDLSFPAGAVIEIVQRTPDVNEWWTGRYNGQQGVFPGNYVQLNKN

Row | Binder | SPOT intensity
40 | ALFRLSFFFPLDPAY | 8
41 | QFDLKMPSKPIHNLK | 6
42 | FLIKFTPKFPQSIDH | 2

target: T12, Myo5, Q04439; test: SPOT array; conditions: median of control spots 471

Row | Binder | SPOT intensity
43 | ALFRLSFFFPLDPAY | 17
44 | QFDLKMPSKPIHNLK | 29
45 | FLIKFTPKFPQSIDH | 27

target: T13, Nbp2, Q12163; test: SPOT array; conditions: median of control spots 357

Row | Binder | SPOT intensity
46 | ALFRLSFFFPLDPAY | 283
47 | QFDLKMPSKPIHNLK | 0
48 | FLIKFTPKFPQSIDH | 418

target: T14, Sla1-3, P32790; test: SPOT array; conditions: median of control spots 5475

Row | Binder | SPOT intensity
49 | ALFRLSFFFPLDPAY | 54
50 | QFDLKMPSKPIHNLK | 0
51 | FLIKFTPKFPQSIDH | 13

target: Myo3, P36006; test: SPOT array; conditions: median of control spots 468

Row | Binder | SPOT intensity
52 | ALFRLSFFFPLDPAY | 44
53 | QFDLKMPSKPIHNLK | 34
54 | FLIKFTPKFPQSIDH | 77

target: T15, Boi2, P39969; test: SPOT array; conditions: median of control spots 1161

Row | Binder | SPOT intensity
55 | ALFRLSFFFPLDPAY | 17
56 | QFDLKMPSKPIHNLK | 2
57 | FLIKFTPKFPQSIDH | 0

target: GST; test: SPOT array; conditions: median of control spots 978

Row | Binder | SPOT intensity
58 | ALFRLSFFFPLDPAY | 1
59 | QFDLKMPSKPIHNLK | 0
60 | FLIKFTPKFPQSIDH | 0

target: T16, Cdc25, P04821; test: SPOT array; conditions: median of control spots 969

Row | Binder | SPOT intensity
61 | ALFRLSFFFPLDPAY | 359
62 | QFDLKMPSKPIHNLK | 1
63 | FLIKFTPKFPQSIDH | 209

target: Bem1-1, P29366; test: SPOT array; conditions: median of control spots 4282
Sequence (P29366 55-141): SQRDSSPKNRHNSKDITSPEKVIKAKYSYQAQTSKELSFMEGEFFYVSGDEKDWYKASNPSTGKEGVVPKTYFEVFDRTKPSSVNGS

Row | Binder | SPOT intensity
64 | ALFRLSFFFPLDPAY | 0
65 | QFDLKMPSKPIHNLK | 0
66 | FLIKFTPKFPQSIDH | 1

target: T17, Bzz1-1, P38822; test: SPOT array; conditions: median of control spots 4446

Row | Binder | SPOT intensity
67 | ALFRLSFFFPLDPAY | 0
68 | QFDLKMPSKPIHNLK | 0
69 | FLIKFTPKFPQSIDH | 0

target: T18, Hse1, P38753; test: SPOT array; conditions: median of control spots 1727

Row | Binder | SPOT intensity
70 | ALFRLSFFFPLDPAY | 116
71 | QFDLKMPSKPIHNLK | 0
72 | FLIKFTPKFPQSIDH | 25

target: T19, Boi1, P38041; test: SPOT array; conditions: median of control spots 1162

Row | Binder | SPOT intensity
73 | ALFRLSFFFPLDPAY | 192
74 | QFDLKMPSKPIHNLK | 0
75 | FLIKFTPKFPQSIDH | 7

target: T20, Lsb3, P43603; test: SPOT array; conditions: median of control spots 406

Row | Binder | SPOT intensity
76 | ALFRLSFFFPLDPAY | 16
77 | QFDLKMPSKPIHNLK | 9
78 | FLIKFTPKFPQSIDH | 32

target: T21, Sla1-2, P32790; test: SPOT array; conditions: median of control spots 712

Row | Binder | SPOT intensity
79 | ALFRLSFFFPLDPAY | 4
80 | QFDLKMPSKPIHNLK | 2
81 | FLIKFTPKFPQSIDH | 10
